Assay results published in article PMC9348755 (Science (New York, N.y.), 2022).

B1: C13B8 mAb (antibody, V domains shown)
VH: QVQLQESGPGLVQPSQTLTLTCTVSGDSISNEDYHWTWIRQHPGKGLEWMGYLQYSGNTNYNPSLKSRMTISVDTSKNQFSLRLNSVTAADTAVYFCATSIVLTGMSNKIQPFDYWGQGTLVTVSS
VL: SYELTQPPSVSVSPGQMARITCSGEALPKKYAYWYQQKGGQFPVLVIYKDTERPSGIPERFSGSSSGTIVTLTISGVQPEDEADYYCLSADTSGTWVFGGGTKLTVL
notes: also called Group 3 mAb; fusion peptide-specific mAb
B2: C13C9 mAb (antibody, V domains shown)
VH: EVQLVQSGPEVKKPGTSARVSCKASGFTSKNTALQWVRQARGQPLEWMGWIDISNYITNYAQKFRGRLTITWDLSASMAYMELSSLRSEDTAVYYCAAVGKDDDVLTGGNKYFDHWGQGTLVTVSS
VL: SYELTQPPSVSVSPGQTARITCSGDALPKKYAYWYQQKSGQAPVLVIHEDDKRPSGIPGRFSASSSGTTATLTISGAQVEDEADYYCYSTDTNDNHAFGSGTKLTVL
notes: as for B1
B3: C77G12 mAb (antibody, V domains shown)
VH: EVQLVESGGGVVQPGRSLRISCAVSGFTFGSYAMHWVRQAPGKGLEWVGVMSSDGHNEYYADSVKGRFTISRDNSRNKLYLEMNNLRVDDTAVFYCARGSDYVDDSPPLHYWGQGTLVTVSS
VL: DIQLTQSPSSLSASIGDRVTITCRASQDIANKLAWFQQAPGKAPKSLIYAASRLQSGVPSQFSGSGSGTDFTLTIESLQAGDFATYFCQQYDSFPFTFGPGTKVDVK
notes: as for B1
B4: VN01H1 mAb (antibody, V domains shown)
VH: EVQLVESGGGLVLPGGSLRLSCSASGFTFSDFSMHWVRQSPGKGLEYVSAITSSGSSTYYPDSVKGRFTISRDNSKNTLYLQMGSLRVEDTAVYWCVKNSDVFRFPHLYFDVWGRGTLVTVSS
VL: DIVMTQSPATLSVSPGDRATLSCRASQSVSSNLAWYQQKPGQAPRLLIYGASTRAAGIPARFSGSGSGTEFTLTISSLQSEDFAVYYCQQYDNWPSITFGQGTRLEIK
notes: as for B1
B5: VP12E7 mAb (antibody, V domains shown)
VH: QVQLVQSGGGVVQPGESLRLSCSGSGFTFNNYIMHWVRQAPGQGLDYVSGIGSDGRNTNYGDSVKGRFTISRDNSKDTLYLQMTSLRAEDTAFYYCVKGLDVLRFLDLSTPSGERLDAFDIWGQGTMVTVSS
VL: DIVMTQSPSFLSASVGDRVTITCRASQGISNYLAWYQQKPGKAPHLLIYAASTLQSGVPSRFSGSGSGTEFTLTISSLQPEDFATYYCQQLNSYPLFTFGPGTKVDIE
notes: as for B1

Target: prefusion PentaPro (F817) SARS-CoV-2 S2 (SARS-CoV-2 (Wuhan-Hu-1 assumed), UniProt P0DTC2, stabilised)
Test: ELISA
Conditions: both partners purified

Row | Binder | binding result
1 | B1 | binds
2 | B2 | binds
3 | B3 | binds
4 | B4 | binds
5 | B5 | binds
